± gives the uncertainty stated by the source.

This data set in a line: amyloid nucleation score (Sup35N fusion, yeast selection) (log enrichment); library NNK1; higher = more nucleation; inactive = no reads after selection. In a few lines: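 Psi-negative yeast expressed Sup35N fused to peptides of 20 random codons. They were induced 24 hours with 100 μM copper sulfate, grown 7 days at 30°C without adenine and uracil, and their plasmid inserts from input and output were Illumina-sequenced. The nucleation score is the DiMSum log enrichment of output over input reads, centred on the mode score of non-aggregating sequences. Sequences with under 100 input reads were excluded.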
As for TCCRRVLSMEQQDTLVYWQY, the amyloid nucleation score was -0.585 ± 1.7.

The substance TCHLIL gave an amyloid nucleation score of -0.872 ± 0.34.

Consider TCKTHHRGTPGATVFPKDTA, for which the amyloid nucleation score worked out at 0.17 ± 0.45. The figure for TCNHYNRVVFQSNVIYLIHV is 2.77 ± 0.15; for TCNRHSDTEGLC it is -1.13 ± 0.66; for TCRCTKLTSAYMLRVWSVQF it is -0.332 ± 0.55.

Take TCSSLRSLLWSCVVRALLWT: the amyloid nucleation score was -0.528 ± 1.2. As to TDAPHTCWLFFLYSVSFLIV, the amyloid nucleation score was -0.204 ± 0.43.

Consider TDIIFIVRYSVVLVSLCSKC, for which the amyloid nucleation score is -0.343 ± 0.69. The figure for TDLNLVMKKGSYVGCSSSCV is -0.605 ± 0.24; for TDQCGWGTVRRSAETSLGQL it is 0.77 ± 0.78.

Substance TDSSREGVNLHKLLFTFAMR displayed an amyloid nucleation score of 0.137 ± 1.1. TDYRFTRVWRRGVARS: the amyloid nucleation score worked out at 0.707 ± 0.55. The result for TEEFYPARSCMK reads -1.87 ± 1.3; that for TEGPSN, “inactive”; that for TESPRCRVPGVELPD, -0.136 ± 0.67. The substance TFCCIVSFF returned an amyloid nucleation score of 7.199 ± 0.049. The result for TFFYKDSDRDSCMGMLLIVC reads 0.295 ± 0.44. The result for TFGSETESMLNTKYSSGCVG reads 0.067 ± 0.55; that for TFGVVEFSRNRGMSLCETLN, 0.386 ± 0.42; that for TFKYFDSLTLPDLYIVVHGS, 0.037 ± 0.2. For the substance TFLQFTRYFWLTTYNKGSS, the amyloid nucleation score result was “inactive”. TFLYKKLTFEVVWGCLIASE came in with an amyloid nucleation score of -0.041 ± 0.84.

The substance TFNLVLGLSWNPDMFGDKGV had an amyloid nucleation score of 1.2 ± 0.41. Take TFSGFYGVYYNQILVGSLIQ: the amyloid nucleation score result was “inactive”.

TFTCVITSGCDLYPLLGHIS registered an amyloid nucleation score of 0.9 ± 0.4. In the case of TFVLRCFSRCDGAITFQTRP, the amyloid nucleation score was 1.14 ± 0.2.

For the substance TFWTLVQQATVKHMLYGTFL, the amyloid nucleation score is -0.663 ± 1.9.

Turning to TFWVGEKSRVGSVPFQYLRL, the amyloid nucleation score was -0.152 ± 0.31. With TFYEHMVCGRHQSQAVWLVK, the amyloid nucleation score came out at 0.169 ± 0.6.

As for TGDLVTLGGVGL, the amyloid nucleation score turned out to be 0.309 ± 0.42. TGDVLIYWFLVTHRMTAVQV gave an amyloid nucleation score of -0.096 ± 1.

Regarding TGFGKKRATGWVAWGWEKLL, the amyloid nucleation score was -0.468 ± 0.32. Substance TGKAVTSGWKNIVSSITSQR came in with an amyloid nucleation score of -0.434 ± 0.58. Substance TGLPFYEEIMRTPHM registered an amyloid nucleation score of -0.766 ± 0.5. As for TGMWPFNRRCITIRTVSRNL, the amyloid nucleation score turned out to be 0.467 ± 0.93. TGPVLTPKSCYFGHINSSCF registered an amyloid nucleation score of -0.009 ± 0.29.

Substance TGQLDV yielded an amyloid nucleation score of 1.75 ± 0.58. Regarding TGRRIVGYDCLNRSCMYICV, the amyloid nucleation score was -0.321 ± 0.25.

Consider TGRRLERGMRLRHGDAEYCC, for which the amyloid nucleation score turned out to be 0.408 ± 0.28.

TGSLG returned an amyloid nucleation score of -0.214 ± 0.31. The result for TGTHDVVVAVGYR reads -0.658 ± 0.54; that for TGYGVAVGPFVGGDF, -0.548 ± 1.5; that for TGYLERRVGYYRVRFRCERS, 0.022 ± 0.6. THCFFYHLGKFYMSKITLAS displayed an amyloid nucleation score of -1.48 ± 2.7. On to THDAFF, for which the amyloid nucleation score turned out to be 0.642 ± 0.48. For the substance THFMYIVELERGRLFGCSVR, the amyloid nucleation score was found to be 0.115 ± 1. For the substance THLGGRRFHFSELRTRSSRG, the amyloid nucleation score is -0.023 ± 0.49. The result for THQGWYSQNEHERRWIVHSF reads 0.028 ± 0.58. The figure for THTYGGDG is -0.096 ± 0.74; for TICNMSRWYDMKNYGEKMEV it is 1.21 ± 0.6. The figure for TIDGSPIGMTTWPVPSFKFS is 0.742 ± 0.56; for TIFGHVRGSYETKWMWAPWR it is 2.98 ± 0.12. TIFLSF returned an amyloid nucleation score of -0.284 ± 0.27. Consider TIHFRSDQHLSNIWRGFWQY, for which the amyloid nucleation score entry is “inactive”. The result for TILGVITKIVQTLLWMPWVA reads -1.37 ± 0.9. TINWEPRFRVLHSPIYRGCY: the amyloid nucleation score result was “inactive”. Substance TITDNSPNKTMIEVEEIRL gave an amyloid nucleation score of 0.109 ± 1.1. TITHGYLRLRYCVR displayed an amyloid nucleation score of -0.292 ± 0.44. Consider TKCHIQLYIALASVAGGSGF, for which the amyloid nucleation score turned out to be 2.36 ± 0.29.

As for TKGAFKVEKWSLSE, the amyloid nucleation score was -0.115 ± 0.23. As for TKMCF, the amyloid nucleation score turned out to be 0.105 ± 0.41. TKVFGRYLVVSGRFCIIEKK yielded an amyloid nucleation score of -0.371 ± 0.38. The result for TLCREEVETRLEATFCGCTN reads 0.979 ± 0.84; that for TLDWLMSIFLILVSLAFNGL, -0.14 ± 0.33. Regarding TLDYVSYWGFTIWYAFMMVL, the amyloid nucleation score entry was “inactive”. TLFRGMGYSWNVNKPDARKV: the amyloid nucleation score was -0.403 ± 1.4. The figure for TLGLVDERHEDWIVLDYTLG is 0.422 ± 0.53. Substance TLLMRSEGYLFYYAPSLSLV had an amyloid nucleation score of -0.494 ± 0.44.

On to TLLPARGGKKAR, for which the amyloid nucleation score was determined as 0.256 ± 0.49. As for TLMNHGRESLGWFD, the amyloid nucleation score was -0.828 ± 0.66. In turn, TLPDKRILLSANIMPALVCN showed an amyloid nucleation score of 0.837 ± 0.31.

TLQLN gave an amyloid nucleation score of -0.59 ± 0.65. TLRVIAVVDTFSRVYFR gave an amyloid nucleation score of 3.58 ± 0.12. As to TLSKVICVSPTVGMGLSSER, the amyloid nucleation score worked out at 0.616 ± 0.79. For TLSSRSYC, the amyloid nucleation score was found to be 0.402 ± 0.33.

As to TLVCNGQISTNLYYVKVGSS, the amyloid nucleation score was found to be 2.83 ± 0.12. For the substance TLVSAVSCCLNAC, the amyloid nucleation score is -0.269 ± 0.26. On to TLWVNIG, for which the amyloid nucleation score is -1.44 ± 2.7. Regarding TMFIFCWKTGVCLYCNLFTS, the amyloid nucleation score was -0.591 ± 0.4. TMIDNPVYPSVFRVGHDTLV yielded an amyloid nucleation score of 0.356 ± 0.3. The substance TMRSNRLFRICFCLGKKYWL showed an amyloid nucleation score of -0.562 ± 0.33. On to TMWIAGVRNR, for which the amyloid nucleation score was -0.367 ± 0.62. In turn, TNFCGVNPGRIIRLWEDRSW yielded an amyloid nucleation score of -0.762 ± 0.45. The substance TNFLKSFHV showed an amyloid nucleation score of -1.95 ± 1.8.

Substance TNGLCFI registered an amyloid nucleation score of -0.833 ± 0.74. TNGRR: the amyloid nucleation score is -0.691 ± 1.2. Take TNTSWVFVVCIEHKEMDQAV: the amyloid nucleation score turned out to be 5.9 ± 0.086. TNVNF: the amyloid nucleation score is -1.24 ± 0.74. The figure for TPFRDKHGGVWVV is 0.505 ± 0.56; for TPLFRGFIMLQPRLRCDKFA it is 0.013 ± 0.31. Consider TPNQSRFPNAVMTDTVTSFS, for which the amyloid nucleation score amounted to 0.214 ± 0.81. The result for TQDIILDNSHDATHQHTRRA reads -0.243 ± 1.

As for TQEVLLFPGGCYNPFAFGWS, the amyloid nucleation score was -0.647 ± 0.75. Turning to TQSSNPTLGGFQFHLWVNIF, the amyloid nucleation score was -1.85 ± 0.95. The figure for TRCIAVFIGD is 2.52 ± 0.11; for TRCRWLQ it is 0.931 ± 0.93; for TRFMMRVRIVSDCDTVNFAC it is -0.379 ± 0.62.

Consider TRFNFMGLYNLRMVN, for which the amyloid nucleation score is -0.777 ± 1.2. Substance TRIVLLVVRRGTRKG came in with an amyloid nucleation score of 0.889 ± 0.48. On to TRLHRSQYSLSQSYNRTRKM, for which the amyloid nucleation score was found to be 0.39 ± 1.2. The figure for TRMLLMIL is -0.921 ± 2.4. The figure for TRNVSVTAVMED is 0.938 ± 0.81; for TRSLPFSIS it is 0.109 ± 1.4. As for TRVASQDARTDP, the amyloid nucleation score was -0.034 ± 0.49. The substance TRWCEWRYRSPDRYASLTGF yielded an amyloid nucleation score of -0.06 ± 0.43. TSAASLVERNLFLVSFFIIW came in with an amyloid nucleation score of -0.376 ± 1.7.

The substance TSCVLFLYTPLTGSFLAGCP registered an amyloid nucleation score of -0.46 ± 0.59. Regarding TSELFYGTCGKGCPERVGGQ, the amyloid nucleation score was -0.266 ± 1.6.

Regarding TSFMEIVVLDAVGRQRRSSV, the amyloid nucleation score was -0.106 ± 0.49. For TSGFLPLKTKMF, the amyloid nucleation score amounted to 0.252 ± 0.8. TSGWCSRLQIIGLYLNVLVC displayed an amyloid nucleation score of 5.47 ± 0.06. For TSINWFRTVLYGVSLNYFWV, the amyloid nucleation score stood at 0.345 ± 0.6.

TSKSTLYSECVMWPVDPEPT registered an amyloid nucleation score of 0.273 ± 0.58. The result for TSLPTAVWLKSARQWVEYGL reads 1.18 ± 0.54; that for TSLRFLSVRS, 0.011 ± 0.49; that for TSMLDLN, -1.69 ± 1.8. As for TSMLSGSWSRPDPLTDSSGD, the amyloid nucleation score turned out to be 0.517 ± 0.47. Consider TSNSS, for which the amyloid nucleation score is -1.07 ± 0.52. As for TSRGKDLSTRVGGGAPPGFR, the amyloid nucleation score is -0.766 ± 1.6.

TSSCLVYL returned an amyloid nucleation score of -0.413 ± 0.55. The figure for TSSTRILISTTELVRNYCYC is 1.37 ± 0.26. As for TSSVGMWGQWYSRWNSRKCN, the amyloid nucleation score is -0.573 ± 1.7.

The substance TSTYWQVDEAV came in with an amyloid nucleation score of -0.325 ± 0.52. The substance TSYLLCMEQYYLKEISCRDS came in with an amyloid nucleation score of 0.688 ± 0.38.

Take TSYYRGFYKYAWNG: the amyloid nucleation score is 0.21 ± 0.39. Consider TTFFDLT, for which the amyloid nucleation score was 0.713 ± 0.74.

Take TTFFSGIYKKASLFYRHFVL: the amyloid nucleation score is -0.812 ± 0.28. Turning to TTMILWQTQYDYLG, the amyloid nucleation score is -0.247 ± 0.58. For TTRFRNFKLRSH, the amyloid nucleation score entry was “inactive”. Regarding TTVANTSAVFCEAVCKGMQK, the amyloid nucleation score turned out to be 0.078 ± 0.99. For the substance TVFYMRPVGSGTGNLNLLQL, the amyloid nucleation score turned out to be 0.906 ± 1. The figure for TVIGSSRGAPLIIKSGFIIE is 4.25 ± 0.056; for TVMHSAMIYILVPVSGSGQV it is 5 ± 0.064. In turn, TVMTRRSLWRTVGLNWVMLV registered an amyloid nucleation score of 1.53 ± 0.19. With TVSDHPSFFCVYCADSSVGM, the amyloid nucleation score was 7.439 ± 0.073. On to TVSLGEQFLFTIAVGYGDSD, for which the amyloid nucleation score entry is “inactive”. The substance TVTYRLYVPATVCFKILFRR registered an amyloid nucleation score of -0.625 ± 0.33. Turning to TVYYDSIRSMYGYGGGVASR, the amyloid nucleation score was -0.344 ± 0.49. In turn, TWEFRYNFFYNVPRLQTYKI yielded an amyloid nucleation score of -0.169 ± 0.42.
